{
  "source": "paper PMC10844593",
  "key": {"[1]": {"molecular_target": "Flag-tagged human AMPK-α1 fusion protein (human) (UniProt Q13131)", "sequence (Q13131 whole entry, the tested form may be a part)": "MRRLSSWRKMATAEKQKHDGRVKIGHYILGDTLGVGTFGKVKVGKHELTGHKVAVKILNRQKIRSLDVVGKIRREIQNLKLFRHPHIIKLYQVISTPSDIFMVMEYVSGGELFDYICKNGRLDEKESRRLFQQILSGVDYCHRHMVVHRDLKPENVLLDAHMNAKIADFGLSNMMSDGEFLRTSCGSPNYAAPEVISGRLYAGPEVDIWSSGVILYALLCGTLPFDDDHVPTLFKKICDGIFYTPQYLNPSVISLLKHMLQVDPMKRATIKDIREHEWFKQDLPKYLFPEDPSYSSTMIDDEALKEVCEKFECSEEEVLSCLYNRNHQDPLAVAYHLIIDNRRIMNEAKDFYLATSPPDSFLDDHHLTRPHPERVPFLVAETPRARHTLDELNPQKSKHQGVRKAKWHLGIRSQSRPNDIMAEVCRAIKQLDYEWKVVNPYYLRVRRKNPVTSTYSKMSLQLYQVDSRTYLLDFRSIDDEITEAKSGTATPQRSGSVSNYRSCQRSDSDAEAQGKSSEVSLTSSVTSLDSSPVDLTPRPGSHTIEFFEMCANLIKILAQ"}, "[2]": {"molecular_target": "Flag-tagged human AMPK-α2 fusion protein (human) (UniProt P54646)", "sequence (P54646 whole entry, the tested form may be a part)": "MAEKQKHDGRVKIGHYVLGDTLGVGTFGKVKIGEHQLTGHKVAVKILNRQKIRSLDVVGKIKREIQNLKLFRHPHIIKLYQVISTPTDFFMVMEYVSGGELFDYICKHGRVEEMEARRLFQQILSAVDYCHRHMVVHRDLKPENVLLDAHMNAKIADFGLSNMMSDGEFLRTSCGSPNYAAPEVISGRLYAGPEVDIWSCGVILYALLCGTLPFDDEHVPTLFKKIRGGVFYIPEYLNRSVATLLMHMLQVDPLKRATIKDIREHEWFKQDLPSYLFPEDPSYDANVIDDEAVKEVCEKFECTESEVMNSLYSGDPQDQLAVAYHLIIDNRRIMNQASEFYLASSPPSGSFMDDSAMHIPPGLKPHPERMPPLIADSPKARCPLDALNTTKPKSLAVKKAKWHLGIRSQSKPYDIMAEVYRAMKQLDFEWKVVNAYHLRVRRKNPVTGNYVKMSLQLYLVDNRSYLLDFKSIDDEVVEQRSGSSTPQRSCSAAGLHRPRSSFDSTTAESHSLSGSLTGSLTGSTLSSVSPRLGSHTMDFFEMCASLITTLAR"}, "[3]": {"molecular_target": "Flag-tagged human CHREBP fusion protein (human) (UniProt Q9NP71)", "sequence (Q9NP71 whole entry, the tested form may be a part)": "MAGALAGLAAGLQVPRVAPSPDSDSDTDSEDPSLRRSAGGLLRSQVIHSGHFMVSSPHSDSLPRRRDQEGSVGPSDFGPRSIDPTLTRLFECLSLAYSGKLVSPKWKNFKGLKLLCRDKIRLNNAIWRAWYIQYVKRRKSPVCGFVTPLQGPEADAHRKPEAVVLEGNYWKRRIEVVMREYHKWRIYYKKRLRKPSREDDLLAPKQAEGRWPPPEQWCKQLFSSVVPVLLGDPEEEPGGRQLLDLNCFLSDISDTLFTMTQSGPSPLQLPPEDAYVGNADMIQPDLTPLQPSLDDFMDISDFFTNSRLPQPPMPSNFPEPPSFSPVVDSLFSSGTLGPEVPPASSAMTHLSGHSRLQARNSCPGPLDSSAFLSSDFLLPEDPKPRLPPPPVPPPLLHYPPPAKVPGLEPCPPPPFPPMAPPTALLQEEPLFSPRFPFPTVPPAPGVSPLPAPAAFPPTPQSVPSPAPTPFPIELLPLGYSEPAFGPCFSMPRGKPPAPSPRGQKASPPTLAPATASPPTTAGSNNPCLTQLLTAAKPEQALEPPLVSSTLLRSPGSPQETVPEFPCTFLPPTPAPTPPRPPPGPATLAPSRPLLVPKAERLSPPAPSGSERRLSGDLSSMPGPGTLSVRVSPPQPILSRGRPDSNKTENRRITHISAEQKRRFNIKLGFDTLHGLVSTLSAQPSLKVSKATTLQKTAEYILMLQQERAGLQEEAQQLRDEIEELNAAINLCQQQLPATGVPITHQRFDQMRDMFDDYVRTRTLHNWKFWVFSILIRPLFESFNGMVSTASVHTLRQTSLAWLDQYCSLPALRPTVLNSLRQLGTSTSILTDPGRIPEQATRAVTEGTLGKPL"}},
  "data": [
    {"substance": "active CDK6/Cyclin D3 kinase (from UniProt Q00534 1-326; P30281 1-292) (complex)", "values": [
      {"measurement": "fold increase in total spectrum counts (TSC) of phosphorylated peptides of the substrate after in vitro kinase reaction with CDK6/D3 (mass spectrometry)", "setting": "[1]", "result": 14.7, "unit": "fold"},
      {"measurement": "fold increase in total spectrum counts (TSC) of phosphorylated peptides of the substrate after in vitro kinase reaction with CDK6/D3 (mass spectrometry)", "setting": "[2]", "result": 46.8, "unit": "fold"},
      {"measurement": "fold increase in total spectrum counts (TSC) of phosphorylated peptides of the substrate after in vitro kinase reaction with CDK6/D3 (mass spectrometry)", "setting": "[3]", "result": 6.43, "unit": "fold"}
    ]}
  ]
}
